Laboratory results from the supplement of paper PMC7125110.
± gives the standard error. For some of these results: Variants at the floor of the assay were thinned out.

B1: glmS ribozyme (parent)
chain: AUAAAAGCGCCAGAACUACAGAAAUGUAGUUGACGAGGAGGAGGUUUAUCGAAUUUUCGGCGGAUGCCUCCAAA

Key:
Details in all cases: with glucosamine-6-phosphate
[1] = variants of: B1; test: kcat; higher = faster cleavage; RNA array
Procedure, shortened: (§1)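 Ribozyme variants carrying barcodes were transcribed in situ on sequenced MiSeq chips by E. coli RNA polymerase and tracked at 37 °C with a hybridised Cy3 probe. They were exposed to 40 μM to 10 mM glucosamine-6-phosphate in HEPES/KCl/Mg(OAc)2 buffer. kobs came from exponential decay fits of normalised per-tile medians, and kcat and KM from weighted Michaelis–Menten fits.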

[2] = variants of: B1; test: KM; higher = weaker cofactor use; RNA array
Procedure, shortened: as §1

[3] = variants of: B1; test: self-cleavage kobs at 40 uM GlcN6P; higher = faster cleavage; RNA array
Procedure, shortened: as §1

[4] = variants of: B1; test: self-cleavage kobs at 640 uM GlcN6P; higher = faster cleavage; RNA array
Procedure, shortened: as §1

[5] = variants of: B1; test: self-cleavage kobs at 2500 uM GlcN6P; higher = faster cleavage; RNA array
Procedure, shortened: as §1

[6] = variants of: B1; test: self-cleavage kobs at 10000 uM GlcN6P; higher = faster cleavage; RNA array
Procedure, shortened: as §1

[7] = variants of: B1; test: self-cleavage kobs at 160 uM GlcN6P; higher = faster cleavage; RNA array
Procedure, shortened: as §1

Row | Variant | kcat [1] | KM [2] | self-cleavage kobs at 40 uM GlcN6P [3] | self-cleavage kobs at 640 uM GlcN6P [4] | self-cleavage kobs at 2500 uM GlcN6P [5] | self-cleavage kobs at 10000 uM GlcN6P [6] | self-cleavage kobs at 160 uM GlcN6P [7]
1 | G29A A52U | 0.0001272 ± 9.8e-07 s⁻¹ | 2770 ± 58 µM | < 1e-05 s⁻¹ | 2.42e-05 ± 1.1e-05 s⁻¹ | 5.99e-05 ± 1.4e-05 s⁻¹ | 9.97e-05 ± 1.3e-05 s⁻¹ | 
2 | A15C G41A | 0.000104 ± 4.7e-06 s⁻¹ | 744 ± 120 µM |  | 4.65e-05 ± 1.2e-05 s⁻¹ | 8.56e-05 ± 1.8e-05 s⁻¹ | 9.45e-05 ± 1.5e-05 s⁻¹ | 
3 | G38A U47G C71G | 1.15e-05 ± 1.8e-06 s⁻¹ |  |  |  |  |  | 
4 | G13C U30G | 3.93e-05 ± 3.7e-06 s⁻¹ | 2100 ± 830 µM |  |  |  | 3.23e-05 ± 9.3e-06 s⁻¹ | 
5 | C61U | 1.4e-05 ± 3.1e-06 s⁻¹ |  | < 1e-05 s⁻¹ |  | 2.23e-05 ± 2.6e-06 s⁻¹ | 1.19e-05 ± 1.4e-06 s⁻¹ | 
6 | G35A G37A G44U U49G C67G | < 1e-05 s⁻¹ |  |  |  | < 1e-05 s⁻¹ |  | 
7 | G37U U47A | < 1e-05 s⁻¹ |  |  | < 1e-05 s⁻¹ |  |  | 
8 | G29A G66C | 6.73e-05 ± 1.1e-05 s⁻¹ | 1940 ± 930 µM |  |  | 4.16e-05 ± 1.1e-05 s⁻¹ | 5.41e-05 ± 1.4e-05 s⁻¹ | 
9 | A52C U57G | 9.64e-05 ± 1.4e-05 s⁻¹ | 2300 ± 960 µM |  |  | 5.77e-05 ± 1.5e-05 s⁻¹ | 7.59e-05 ± 1.6e-05 s⁻¹ | < 1e-05 s⁻¹
10 | A15G U57C | 0.000143 ± 1.4e-05 s⁻¹ | 2200 ± 520 µM |  | 2.79e-05 ± 9.6e-06 s⁻¹ | 8.09e-05 ± 1.2e-05 s⁻¹ | 0.000113 ± 1.7e-05 s⁻¹ | 
11 | G29U A33U | 6.61e-05 ± 1.9e-06 s⁻¹ | 3280 ± 300 µM |  |  | 2.87e-05 ± 9.6e-06 s⁻¹ | 4.97e-05 ± 6.7e-06 s⁻¹ | 
12 | A33C U55G | 0.000433 ± 0.00012 s⁻¹ | 2970 ± 1400 µM |  | 9.32e-05 ± 1.6e-05 s⁻¹ | 0.000163 ± 2.8e-05 s⁻¹ | 0.000384 ± 6.3e-05 s⁻¹ | 
13 | G9A U47G | < 1e-05 s⁻¹ |  |  | < 1e-05 s⁻¹ |  |  | 
14 | G51U U57G | < 1e-05 s⁻¹ |  |  |  |  | < 1e-05 s⁻¹ | 
15 | A14U U45C | 0.000739 ± 0.00014 s⁻¹ | 3320 ± 1200 µM |  | 0.000105 ± 1.9e-05 s⁻¹ | 0.000436 ± 6.7e-05 s⁻¹ | 0.000531 ± 6e-05 s⁻¹ | 
16 | A52G U65C | 3.32e-05 ± 1.6e-06 s⁻¹ | 248 ± 83 µM |  |  |  |  | 
17 | U56C C71U | 0.000531 ± 7.9e-05 s⁻¹ | 1380 ± 590 µM |  | 0.000219 ± 3.6e-05 s⁻¹ | 0.000287 ± 5.6e-05 s⁻¹ | 0.000477 ± 4.5e-05 s⁻¹ | 
18 | G32A A42G | 0.00505 ± 0.0014 s⁻¹ | 3140 ± 1200 µM | 7.49e-05 ± 1.3e-05 s⁻¹ | 0.00133 ± 0.00025 s⁻¹ | 0.00281 ± 0.00043 s⁻¹ | 0.00357 ± 0.00047 s⁻¹ | 0.000193 ± 3.2e-05 s⁻¹
19 | G32A G41U A52U | < 1e-05 s⁻¹ | 1010 ± 120 µM | < 1e-05 s⁻¹ | < 1e-05 s⁻¹ |  |  | 
